Assay results reported in the supplement of paper PMC10065799, “High-throughput profiling of sequence recognition by tyrosine kinases and SH2 domains using bacterial peptide display” (eLife, 2023).

Columns and labels:
c-Src SH2 = assay: SH2 binding enrichment of the phosphorylated peptide, bacterial display (enrichment ratio); higher = better substrate or ligand; peptides without Tyr show the background
Grb2 SH2 = Grb2 SH2 (UniProt P62993); assay: as above
SHP2-C SH2 = assay: as above
c-Abl (mouse) = assay: phosphorylation enrichment, bacterial display (enrichment ratio); higher = better substrate or ligand; peptides without Tyr show the background
c-Src = assay: as above
MERTK = MERTK (UniProt Q12866); assay: as above
AncSZ = assay: as above
EPHB1 = EPHB1 (UniProt P54762); assay: as above
FGFR3 = FGFR3 (UniProt P22607); assay: as above
EPHB2 = EPHB2 (UniProt P29323); assay: as above
Jak2 = Jak2 (UniProt O60674); assay: as above
Hck = Hck (UniProt P08631); assay: as above
Fer (mouse) = assay: as above
Fyn = Fyn (UniProt P06241); assay: as above
Fes = Fes (UniProt P07332); assay: as above
FGFR1 = FGFR1 (UniProt P11362); assay: as above
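Throughout, for SH2 binding enrichment of the phosphorylated peptide, bacterial display: peptide library displayed on the E. coli surface as eCPX fusions, selected cells deep-sequenced, score is each peptide's frequency after selection divided by its frequency in the input.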
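Throughout, for phosphorylation enrichment, bacterial display: 11-residue human phosphosite peptides and single-mutation variants displayed on the E. coli surface, counted by deep sequencing, each peptide's frequency after selection divided by its frequency in the unselected input library; frequency after pTyr selection over input frequency; kinase dosed for 20-30% of maximal phosphorylation in three min.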

Sequence of MERTK (Q12866 whole entry, looked up): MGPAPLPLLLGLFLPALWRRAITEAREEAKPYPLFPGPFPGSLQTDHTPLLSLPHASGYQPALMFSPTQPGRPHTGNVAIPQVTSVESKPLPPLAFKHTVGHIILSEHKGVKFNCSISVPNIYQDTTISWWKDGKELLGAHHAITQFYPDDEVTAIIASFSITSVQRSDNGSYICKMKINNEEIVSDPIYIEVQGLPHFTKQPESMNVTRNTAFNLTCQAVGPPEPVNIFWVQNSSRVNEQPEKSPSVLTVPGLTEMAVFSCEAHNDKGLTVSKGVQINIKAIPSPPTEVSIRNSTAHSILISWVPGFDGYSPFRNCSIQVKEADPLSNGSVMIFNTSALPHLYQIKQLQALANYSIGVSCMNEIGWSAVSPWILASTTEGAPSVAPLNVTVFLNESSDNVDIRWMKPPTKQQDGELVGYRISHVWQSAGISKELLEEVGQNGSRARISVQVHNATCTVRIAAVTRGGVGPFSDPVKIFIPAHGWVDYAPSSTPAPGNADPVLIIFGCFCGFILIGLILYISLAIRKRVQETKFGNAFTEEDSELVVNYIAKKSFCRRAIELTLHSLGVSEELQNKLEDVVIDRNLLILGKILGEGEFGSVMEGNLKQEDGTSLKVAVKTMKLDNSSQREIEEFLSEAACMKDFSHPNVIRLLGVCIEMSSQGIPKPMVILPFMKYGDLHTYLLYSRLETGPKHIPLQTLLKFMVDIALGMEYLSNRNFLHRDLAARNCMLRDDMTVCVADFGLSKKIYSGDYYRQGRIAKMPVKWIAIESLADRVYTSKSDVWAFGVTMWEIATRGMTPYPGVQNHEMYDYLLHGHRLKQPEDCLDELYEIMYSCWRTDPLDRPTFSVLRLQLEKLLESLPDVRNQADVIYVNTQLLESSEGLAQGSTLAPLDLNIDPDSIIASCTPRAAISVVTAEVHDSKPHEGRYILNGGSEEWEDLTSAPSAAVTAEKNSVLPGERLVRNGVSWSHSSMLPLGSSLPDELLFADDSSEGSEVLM
Sequence of Jak2 (O60674 whole entry, looked up): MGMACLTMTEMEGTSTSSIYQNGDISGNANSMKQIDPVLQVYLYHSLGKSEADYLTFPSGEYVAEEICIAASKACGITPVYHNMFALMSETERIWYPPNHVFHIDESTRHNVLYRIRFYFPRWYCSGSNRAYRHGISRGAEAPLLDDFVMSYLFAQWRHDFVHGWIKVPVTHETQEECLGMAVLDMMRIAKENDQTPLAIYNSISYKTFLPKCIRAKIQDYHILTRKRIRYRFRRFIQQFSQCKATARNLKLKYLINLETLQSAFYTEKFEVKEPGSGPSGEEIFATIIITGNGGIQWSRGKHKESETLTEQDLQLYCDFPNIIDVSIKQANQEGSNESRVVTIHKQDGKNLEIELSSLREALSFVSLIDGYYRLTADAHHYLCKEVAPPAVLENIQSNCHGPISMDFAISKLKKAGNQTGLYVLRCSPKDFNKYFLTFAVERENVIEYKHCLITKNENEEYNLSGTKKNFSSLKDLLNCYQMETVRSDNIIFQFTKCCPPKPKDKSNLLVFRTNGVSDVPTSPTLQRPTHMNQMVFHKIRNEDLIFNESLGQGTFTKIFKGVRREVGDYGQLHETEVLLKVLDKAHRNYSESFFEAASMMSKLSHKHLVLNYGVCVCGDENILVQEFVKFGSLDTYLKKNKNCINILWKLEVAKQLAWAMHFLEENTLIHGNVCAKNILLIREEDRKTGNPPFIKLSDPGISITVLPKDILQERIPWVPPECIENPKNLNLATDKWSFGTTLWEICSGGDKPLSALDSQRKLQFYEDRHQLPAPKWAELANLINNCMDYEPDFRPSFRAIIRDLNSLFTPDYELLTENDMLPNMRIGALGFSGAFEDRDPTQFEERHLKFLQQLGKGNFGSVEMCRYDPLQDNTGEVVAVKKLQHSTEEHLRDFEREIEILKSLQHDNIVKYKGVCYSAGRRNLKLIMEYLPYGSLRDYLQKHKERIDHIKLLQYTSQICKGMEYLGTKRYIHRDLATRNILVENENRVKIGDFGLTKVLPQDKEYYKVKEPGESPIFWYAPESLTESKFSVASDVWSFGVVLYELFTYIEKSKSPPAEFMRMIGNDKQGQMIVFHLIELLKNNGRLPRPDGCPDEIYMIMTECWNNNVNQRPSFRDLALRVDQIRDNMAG
Sequence of FGFR3 (P22607 whole entry, looked up): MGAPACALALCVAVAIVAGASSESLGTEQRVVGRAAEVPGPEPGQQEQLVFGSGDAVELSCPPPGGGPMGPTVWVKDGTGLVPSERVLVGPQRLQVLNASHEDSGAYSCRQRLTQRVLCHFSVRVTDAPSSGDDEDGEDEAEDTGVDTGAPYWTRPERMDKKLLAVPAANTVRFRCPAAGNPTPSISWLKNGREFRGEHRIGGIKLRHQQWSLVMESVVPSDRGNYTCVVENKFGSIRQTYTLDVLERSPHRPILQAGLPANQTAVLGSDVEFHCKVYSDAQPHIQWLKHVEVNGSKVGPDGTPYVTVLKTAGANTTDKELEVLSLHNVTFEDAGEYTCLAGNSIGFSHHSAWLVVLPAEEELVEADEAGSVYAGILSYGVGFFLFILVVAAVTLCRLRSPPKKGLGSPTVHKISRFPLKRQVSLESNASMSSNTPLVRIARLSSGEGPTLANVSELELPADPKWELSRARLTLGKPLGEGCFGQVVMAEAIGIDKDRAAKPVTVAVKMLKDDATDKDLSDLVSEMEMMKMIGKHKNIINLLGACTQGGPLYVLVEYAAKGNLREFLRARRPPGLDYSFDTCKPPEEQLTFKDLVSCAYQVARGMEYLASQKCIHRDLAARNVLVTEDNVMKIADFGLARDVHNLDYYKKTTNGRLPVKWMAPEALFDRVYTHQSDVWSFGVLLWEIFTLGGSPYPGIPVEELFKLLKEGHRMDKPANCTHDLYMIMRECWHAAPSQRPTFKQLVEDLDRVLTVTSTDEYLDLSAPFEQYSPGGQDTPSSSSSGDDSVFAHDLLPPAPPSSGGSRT
Sequence of EPHB1 (P54762 whole entry, looked up): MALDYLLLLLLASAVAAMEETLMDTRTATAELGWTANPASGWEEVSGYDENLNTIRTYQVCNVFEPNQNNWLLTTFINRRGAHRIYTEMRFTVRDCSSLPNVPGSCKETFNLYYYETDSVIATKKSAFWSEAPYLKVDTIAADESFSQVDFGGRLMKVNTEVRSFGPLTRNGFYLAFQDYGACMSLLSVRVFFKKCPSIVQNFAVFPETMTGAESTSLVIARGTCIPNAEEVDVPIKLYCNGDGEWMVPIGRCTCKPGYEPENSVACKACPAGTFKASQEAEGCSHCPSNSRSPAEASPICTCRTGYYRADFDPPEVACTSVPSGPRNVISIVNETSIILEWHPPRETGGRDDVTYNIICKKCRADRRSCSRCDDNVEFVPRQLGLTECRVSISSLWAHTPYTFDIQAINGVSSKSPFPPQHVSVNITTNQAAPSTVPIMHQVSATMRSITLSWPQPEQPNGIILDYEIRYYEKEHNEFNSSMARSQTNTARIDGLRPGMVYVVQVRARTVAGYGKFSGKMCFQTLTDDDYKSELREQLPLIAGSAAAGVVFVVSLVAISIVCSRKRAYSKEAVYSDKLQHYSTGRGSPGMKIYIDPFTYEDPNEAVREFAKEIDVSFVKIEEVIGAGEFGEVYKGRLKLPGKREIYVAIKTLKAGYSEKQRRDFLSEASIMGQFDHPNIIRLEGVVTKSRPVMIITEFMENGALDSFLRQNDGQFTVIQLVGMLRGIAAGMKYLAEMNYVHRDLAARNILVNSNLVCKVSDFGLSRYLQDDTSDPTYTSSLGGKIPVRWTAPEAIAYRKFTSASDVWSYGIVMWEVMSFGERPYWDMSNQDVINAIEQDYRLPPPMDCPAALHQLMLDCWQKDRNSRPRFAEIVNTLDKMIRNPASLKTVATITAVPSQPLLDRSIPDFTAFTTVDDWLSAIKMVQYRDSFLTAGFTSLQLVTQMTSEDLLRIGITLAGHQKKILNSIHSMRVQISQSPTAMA
Sequence of FGFR1 (P11362 whole entry, looked up, the tested form may be a part): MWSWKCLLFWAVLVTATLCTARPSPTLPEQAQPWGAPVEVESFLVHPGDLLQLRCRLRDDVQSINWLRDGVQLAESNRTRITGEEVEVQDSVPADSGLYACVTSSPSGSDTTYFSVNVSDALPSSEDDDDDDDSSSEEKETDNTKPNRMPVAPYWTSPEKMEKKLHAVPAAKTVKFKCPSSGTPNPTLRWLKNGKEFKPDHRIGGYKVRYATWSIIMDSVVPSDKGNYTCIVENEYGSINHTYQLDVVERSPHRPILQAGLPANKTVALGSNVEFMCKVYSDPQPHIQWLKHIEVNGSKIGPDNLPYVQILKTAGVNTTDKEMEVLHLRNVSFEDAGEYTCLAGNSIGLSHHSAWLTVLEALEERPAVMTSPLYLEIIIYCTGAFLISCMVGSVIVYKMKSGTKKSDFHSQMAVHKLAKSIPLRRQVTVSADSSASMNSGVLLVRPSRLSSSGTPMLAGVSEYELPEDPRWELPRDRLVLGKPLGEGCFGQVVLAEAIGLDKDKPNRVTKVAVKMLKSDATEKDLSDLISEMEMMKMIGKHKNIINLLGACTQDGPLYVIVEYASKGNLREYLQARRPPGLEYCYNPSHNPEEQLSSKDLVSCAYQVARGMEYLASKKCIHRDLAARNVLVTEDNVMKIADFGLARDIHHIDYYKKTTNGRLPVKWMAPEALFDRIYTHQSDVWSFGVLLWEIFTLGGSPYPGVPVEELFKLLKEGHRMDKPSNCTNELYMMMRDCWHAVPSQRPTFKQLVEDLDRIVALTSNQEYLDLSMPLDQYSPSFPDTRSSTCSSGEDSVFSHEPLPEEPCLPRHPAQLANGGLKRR

Row | Sequence | SH2 binding enrichment (c-Src SH2) | SH2 binding enrichment (Grb2 SH2) | SH2 binding enrichment (SHP2-C SH2) | phosphorylation enrichment (c-Abl (mouse)) | phosphorylation enrichment (c-Src) | phosphorylation enrichment (MERTK) | phosphorylation enrichment (AncSZ) | phosphorylation enrichment (EPHB1) | phosphorylation enrichment (FGFR3) | phosphorylation enrichment (EPHB2) | phosphorylation enrichment (Jak2) | phosphorylation enrichment (Hck) | phosphorylation enrichment (Fer (mouse)) | phosphorylation enrichment (Fyn) | phosphorylation enrichment (Fes) | phosphorylation enrichment (FGFR1)
1 | VKYGAYINDFK [GLB1_Y488_N484K] | 2.57 | 7.46 | 1.06 | 0.605 | 0.566 | 0.381 | 0.691 | 0.455 | 0.463 | 0.46 | 0.573 | 0.379 | 0.353 | 0.568 | 0.791 | 0.363
2 | GGFNNYGFGND [HNRNPH3_Y159_YF] | 0.467 | 0.875 | 0.697 | 0.548 | 0.431 | 0.397 | 0.654 | 0.733 | 0.611 | 0.902 | 0.627 | 0.437 | 0.463 | 0.465 | 0.841 | 0.514
3 | RGFDTYFGYLL [ARSB_Y165] | 0.417 | 1 | 1.42 | 1.56 | 6.46 | 4.01 | 2.15 | 5.14 | 3.3 | 8.25 | 5.83 | 7.09 | 3.59 | 8.58 | 1.63 | 3.58
4 | EVKAQYEDIAQ [KRT1_Y358] | 11.6 | 1.15 | 0.64 | 0.774 | 0.516 | 0.435 | 1.22 | 0.546 | 0.748 | 0.539 | 1.06 | 0.69 | 0.761 | 0.556 | 1.26 | 0.593
5 | VATRWYRSPEP [CDKL5_Y177_L182P] | 0.422 | 0.796 | 0.629 | 0.397 | 0.394 | 0.421 | 0.638 | 0.55 | 0.523 | 0.537 | 0.565 | 0.431 | 0.379 | 0.525 | 0.719 | 0.482
6 | PINEPYGDDLD [JUP_Y693_M697L] | 0.655 | 0.727 | 0.568 | 0.972 | 0.696 | 0.653 | 1.35 | 0.799 | 0.988 | 0.921 | 1.16 | 0.532 | 0.734 | 0.781 | 1.16 | 0.873
7 | FHNSEYGELSE [FLT4_Y1337_Y1333H] | 0.452 | 0.893 | 0.992 | 0.806 | 0.849 | 0.352 | 1.18 | 0.613 | 0.738 | 0.504 | 1.05 | 0.724 | 0.473 | 1.1 | 1.23 | 0.569
8 | AAVLNYKAWRD [GRIN2A_Y737_G740W] | 0.481 | 1.35 | 0.915 | 0.808 | 0.396 | 0.386 | 0.839 | 0.408 | 0.462 | 0.276 | 0.646 | 0.436 | 0.338 | 0.35 | 0.656 | 0.534
9 | GEDEPYSEPYA [APBA1_Y183] | 0.582 | 0.903 | 0.742 | 0.845 | 0.551 | 0.531 | 1.35 | 0.542 | 0.756 | 0.673 | 1.15 | 0.477 | 0.618 | 0.55 | 1.19 | 0.516
10 | LLARLYRGQAL [FGFR4_Y390_G388R] | 0.461 | 0.827 | 0.512 | 0.937 | 0.489 | 0.442 | 0.9 | 0.713 | 0.592 | 0.477 | 0.823 | 0.519 | 0.507 | 0.795 | 0.887 | 0.529
11 | QRKPSYNQLPS [BRCA2_Y71_A75P] | 0.423 | 0.858 | 0.648 | 1.08 | 0.682 | 0.567 | 0.886 | 0.449 | 0.598 | 0.522 | 0.72 | 0.691 | 0.536 | 0.599 | 0.767 | 0.557
12 | AGVDRYSLGTS [C5orf42_Y1451_P1446A] | 0.45 | 0.79 | 0.615 | 0.388 | 0.391 | 0.394 | 0.59 | 0.463 | 0.51 | 0.366 | 0.498 | 0.455 | 0.398 | 0.361 | 0.599 | 0.398
13 | GSPAPYRRRKR [MBD1_Y403_P401A] | 0.42 | 0.594 | 0.413 | 0.497 | 0.618 | 0.608 | 0.617 | 0.466 | 0.426 | 0.499 | 0.632 | 0.498 | 0.505 | 0.502 | 0.545 | 0.596
14 | NVGGKYSYLKV [GRM3_Y478] | 2.27 | 1.08 | 1.43 | 0.524 | 0.351 | 0.448 | 0.625 | 0.415 | 0.476 | 0.39 | 0.635 | 0.515 | 0.446 | 0.358 | 0.65 | 0.449
15 | ENGPYYASYPP [GDAP2_Y488_T489A] | 0.632 | 0.729 | 0.773 | 3.72 | 5.28 | 6.92 | 1.09 | 1.64 | 2.01 | 4.76 | 0.662 | 3.82 | 1.29 | 6.13 | 0.735 | 2.69
16 | EKKKFYDTKIE [CASP5_Y104_YF] | 0.427 | 0.636 | 0.437 | 0.653 | 0.6 | 0.428 | 0.772 | 0.396 | 0.567 | 0.397 | 0.883 | 0.503 | 0.446 | 0.353 | 0.933 | 0.342
17 | EQFELYCEMGS [CBL_Y371_YF] | 0.46 | 0.934 | 0.638 | 1.02 | 1.49 | 1.58 | 1.95 | 3.34 | 1.54 | 2.66 | 1.39 | 2.27 | 1 | 1.43 | 1.68 | 1.26

Continued, in another order:

Row | SH2 binding enrichment (c-Src SH2) | SH2 binding enrichment (Grb2 SH2) | SH2 binding enrichment (SHP2-C SH2) | Sequence | phosphorylation enrichment (c-Abl (mouse)) | phosphorylation enrichment (c-Src) | phosphorylation enrichment (MERTK) | phosphorylation enrichment (AncSZ) | phosphorylation enrichment (EPHB1) | phosphorylation enrichment (FGFR3) | phosphorylation enrichment (EPHB2) | phosphorylation enrichment (Jak2) | phosphorylation enrichment (Hck) | phosphorylation enrichment (Fer (mouse)) | phosphorylation enrichment (Fyn) | phosphorylation enrichment (Fes) | phosphorylation enrichment (FGFR1)
18 | 0.544 | 0.869 | 0.75 | HLVSEYQQFQD [TUBB3_Y422_D417H_YF] | 0.559 | 0.728 | 0.336 | 1.07 | 0.819 | 0.54 | 0.916 | 0.917 | 0.524 | 0.338 | 0.577 | 0.974 | 0.741
19 | 0.681 | 0.938 | 0.94 | YLEKYYKFGCR [NNMT_Y25_S29C] | 1.02 | 0.739 | 0.649 | 1.18 | 0.775 | 0.928 | 0.588 | 1.34 | 0.564 | 0.55 | 0.549 | 1.55 | 0.569
20 | 0.442 | 0.808 | 0.443 | MDDKEYFSVHN [MET_Y1234_Y1230D_YF] | 0.757 | 0.435 | 0.447 | 1.43 | 0.492 | 0.919 | 0.587 | 1.02 | 0.452 | 0.434 | 0.411 | 1.03 | 0.743
21 | 0.908 | 1.06 | 0.535 | RNVLVYDKLNV [ROR2_Y624] | 2.12 | 3.99 | 3.88 | 0.933 | 1.97 | 0.787 | 1.97 | 0.632 | 13.9 | 3.9 | 5.08 | 0.64 | 0.614
22 | 7 | 0.832 | 0.617 | AADGRYEVLFL [SEMA3F_Y478] | 0.624 | 0.489 | 0.749 | 1.07 | 0.731 | 0.822 | 0.683 | 1.02 | 0.792 | 2.97 | 0.447 | 1.01 | 0.62
23 | 0.445 | 0.67 | 0.775 | ETCLAYMEKRI [TEKT1_Y118_R119M] | 0.818 | 0.511 | 0.406 | 1.2 | 0.591 | 0.814 | 0.617 | 1.17 | 0.56 | 0.691 | 0.517 | 1.13 | 0.48
24 | 0.696 | 1.25 | 0.839 | PPGRSYSPCDF [TNS1_Y793_Y796C_YF] | 0.902 | 0.649 | 0.676 | 1.01 | 0.895 | 0.816 | 0.858 | 0.679 | 0.639 | 0.689 | 0.431 | 1.16 | 0.716
25 | 0.415 | 0.813 | 0.625 | MKGDYYRSLAE [YWHAG_Y131_Y133S] | 0.463 | 0.428 | 0.44 | 1.1 | 0.422 | 0.742 | 0.508 | 1.14 | 0.427 | 0.426 | 0.466 | 0.738 | 0.96
26 | 0.766 | 0.959 | 0.583 | KSSDVYVSYDC [SORL1_Y136_Y141C] | 0.772 | 3.82 | 0.611 | 1.22 | 0.866 | 1.35 | 0.993 | 0.934 | 1.87 | 0.663 | 4.79 | 1.13 | 1.52
27 | 0.643 | 0.93 | 0.623 | SFPHEYGSQEG [RBM10_Y48_R46H_YF] | 0.583 | 0.395 | 0.459 | 0.768 | 0.485 | 1.46 | 0.602 | 0.645 | 0.679 | 0.47 | 0.515 | 0.87 | 0.565
28 | 2.6 | 0.862 | 0.628 | NLDRFYQQVTK [SEC16A_Y1041] | 0.587 | 0.498 | 0.58 | 0.734 | 0.516 | 0.574 | 0.531 | 0.639 | 0.599 | 0.621 | 0.43 | 0.766 | 0.45
29 | 0.553 | 0.947 | 1.07 | AFLEDYFTSTK [SRC_Y522_E527K] | 0.591 | 0.463 | 0.504 | 1.1 | 0.378 | 0.774 | 0.492 | 1.26 | 0.52 | 0.356 | 0.474 | 0.97 | 0.639
30 | 0.762 | 1.1 | 0.933 | FSAPNYCYRCG [PPP2CA_Y265] | 0.452 | 0.382 | 0.423 | 0.656 | 0.498 | 0.45 | 0.455 | 0.501 | 0.414 | 0.327 | 0.458 | 0.564 | 0.446
31 | 0.442 | 0.882 | 0.901 | SSPVLYLSPET [TJP1_Y931_P930L] | 1.61 | 0.469 | 0.782 | 1.21 | 1.14 | 0.713 | 0.815 | 1.02 | 0.626 | 0.459 | 0.534 | 0.833 | 0.663
32 | 0.586 | 0.669 | 0.839 | RNFVRYVQGLK [VWF_Y1400] | 0.548 | 0.566 | 0.48 | 0.277 | 0.324 | 0.445 | 0.37 | 0.556 | 0.339 | 0.309 | 0.511 | 0.599 | 0.255
33 | 0.561 | 0.977 | 0.861 | IGNGYYFRVFS [MYBPC3_Y1136] | 0.967 | 0.359 | 0.449 | 1.34 | 0.729 | 0.947 | 0.667 | 1.44 | 0.557 | 0.556 | 0.496 | 1.43 | 0.514
